T1: FcγRIIa R (human, UniProt P12318 34-217)
T1 construct: extracellular domain; Soluble His-tagged extracellular domain expressed in FreeStyle293 cells; analyte in Biacore; also called FcgRIIa R; FcgRIIaR; not shown: His tag attached to the C terminus
T1 sequence (looked up): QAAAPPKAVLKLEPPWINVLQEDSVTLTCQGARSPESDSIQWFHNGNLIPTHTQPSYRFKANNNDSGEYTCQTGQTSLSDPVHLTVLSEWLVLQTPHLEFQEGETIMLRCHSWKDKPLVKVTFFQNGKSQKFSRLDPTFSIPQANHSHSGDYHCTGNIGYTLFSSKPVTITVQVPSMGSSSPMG

T2: FcγRIIb (human, UniProt P31994 43-217)
T2 construct: extracellular domain; Soluble His-tagged extracellular domain expressed in FreeStyle293 cells; analyte in Biacore; also called FcgRIIb; 2b; not shown: His tag attached to the C terminus
T2 sequence (looked up): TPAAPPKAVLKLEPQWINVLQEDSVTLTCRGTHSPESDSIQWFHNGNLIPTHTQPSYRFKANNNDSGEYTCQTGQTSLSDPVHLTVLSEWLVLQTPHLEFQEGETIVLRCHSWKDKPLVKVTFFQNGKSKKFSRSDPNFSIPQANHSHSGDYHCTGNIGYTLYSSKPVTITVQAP


How the values were obtained:
FcγRIIa R [1] = biological target: T1, FcγRIIa R; assay: ratio of He/Con_2aR to He/Con_2b (binding to FcγRIIb as reference); SPR
FcγRIIa R [2] = biological target: T1, FcγRIIa R; assay: SPR (Biacore), antibody captured via antigen peptide, FcγR as analyte
Description: (§1) The heterodimerized antibodies He Abs in which one of the H chains was introduced with an alteration were assayed for their binding activities to each activating FcγR and inhibitory FcγR according to the method described in Example 4. […] The activating FcγRs in FIGS. 26, 27, 28, and 29 are FcγRIa, FcγRIIa (R), FcγRIIa (H), and FcγRIIIa, respectively.
(§2) Analysis of interaction between objective antibody and the FcγR was carried out using Biacore T100 (GE Healthcare). HBS-EP+ (GE Healthcare) was used as the running buffer, and the measurement temperature was set to 25° C. Chips produced by immobilizing the antigen peptide by the amine coupling method to a Series S Sencor Chip CM5 (GE Healthcare), or alternatively, chips produced by allowing preliminarily biotinylated antigen peptides to interact with and immobilize onto a Series S Sensor Chip SA (certified) (GE Healthcare) were used. Antibodies of interest were captured onto an antigen peptide-immobilized chip, and allowed to interact to each FcγR diluted with running buffer. To regenerate and repeatedly use the chip, the antibodies captured on the chip were washed off by reacting 10 mM glycine-HCl, pH 1.5.

FcγRIIb = biological target: T2, FcγRIIb; assay: as above
Description: as §1, §2

He_2aR/2b (IIaR/IIb) (FcγRIIa R [1]) | He/Con_2aR (IIaR binding relative to GpH7-A5/GpH7-B3/GpL16-k0) (FcγRIIa R [2]) | He/Con_2b (IIb binding relative to GpH7-A5/GpH7-B3/GpL16-k0) (FcγRIIb) | Binder
1.23 | 64.8 % of control (control = 100) | 52.7 % of control (control = 100) | GpH7-A5/GpH7-B3 variant P329_10E/GpL16-k0 (antibody, human IgG1, kappa, Heterodimerized anti-glypican-3 IgG1 antibody; alteration only in the GpH7-B3 H chain; position in EU numbering; also called He Ab) heavy 1: not shown heavy 2: not shown light: DIVMTQSPLSLPVTPGEPASISCQASESLVHSNRNTYLHWYLQKPGQSPQLLIYKVSNRFSGVPDRFSGSGSGTDFTLKISRVEAEDVGVYYCSQNTHVPPTFGQGTKVEIERTVAAPSVFIFPPSDEQLKSGTASVVCLLNNFYPREAKVQWKVDNALQSGNSQESVTEQDSKDSTYSLSSTLTLSKADYEKHKVYACEVTHQGLSSPVTKSFNRGEC
1.66 | 29.3 % of control (control = 100) | 17.6 % of control (control = 100) | GpH7-A5/GpH7-B3 variant P329_12R/GpL16-k0 (antibody, human IgG1, kappa, Heterodimerized anti-glypican-3 IgG1 antibody; alteration only in the GpH7-B3 H chain; position in EU numbering; also called He Ab) heavy 1: not shown heavy 2: not shown light: DIVMTQSPLSLPVTPGEPASISCQASESLVHSNRNTYLHWYLQKPGQSPQLLIYKVSNRFSGVPDRFSGSGSGTDFTLKISRVEAEDVGVYYCSQNTHVPPTFGQGTKVEIERTVAAPSVFIFPPSDEQLKSGTASVVCLLNNFYPREAKVQWKVDNALQSGNSQESVTEQDSKDSTYSLSSTLTLSKADYEKHKVYACEVTHQGLSSPVTKSFNRGEC
1.79 | 30.2 % of control (control = 100) | 16.9 % of control (control = 100) | GpH7-A5/GpH7-B3 variant P329_11K/GpL16-k0 (antibody, human IgG1, kappa, Heterodimerized anti-glypican-3 IgG1 antibody; alteration only in the GpH7-B3 H chain; position in EU numbering; also called He Ab) heavy 1: not shown heavy 2: not shown light: DIVMTQSPLSLPVTPGEPASISCQASESLVHSNRNTYLHWYLQKPGQSPQLLIYKVSNRFSGVPDRFSGSGSGTDFTLKISRVEAEDVGVYYCSQNTHVPPTFGQGTKVEIERTVAAPSVFIFPPSDEQLKSGTASVVCLLNNFYPREAKVQWKVDNALQSGNSQESVTEQDSKDSTYSLSSTLTLSKADYEKHKVYACEVTHQGLSSPVTKSFNRGEC
1.51 | 57.3 % of control (control = 100) | 37.9 % of control (control = 100) | GpH7-A5/GpH7-B3 variant P329_14T/GpL16-k0 (antibody, human IgG1, kappa, Heterodimerized anti-glypican-3 IgG1 antibody; alteration only in the GpH7-B3 H chain; position in EU numbering; also called He Ab) heavy 1: not shown heavy 2: not shown light: DIVMTQSPLSLPVTPGEPASISCQASESLVHSNRNTYLHWYLQKPGQSPQLLIYKVSNRFSGVPDRFSGSGSGTDFTLKISRVEAEDVGVYYCSQNTHVPPTFGQGTKVEIERTVAAPSVFIFPPSDEQLKSGTASVVCLLNNFYPREAKVQWKVDNALQSGNSQESVTEQDSKDSTYSLSSTLTLSKADYEKHKVYACEVTHQGLSSPVTKSFNRGEC
1.5 | 61.5 % of control (control = 100) | 41 % of control (control = 100) | GpH7-A5/GpH7-B3 variant P329_13S/GpL16-k0 (antibody, human IgG1, kappa, Heterodimerized anti-glypican-3 IgG1 antibody; alteration only in the GpH7-B3 H chain; position in EU numbering; also called He Ab) heavy 1: not shown heavy 2: not shown light: DIVMTQSPLSLPVTPGEPASISCQASESLVHSNRNTYLHWYLQKPGQSPQLLIYKVSNRFSGVPDRFSGSGSGTDFTLKISRVEAEDVGVYYCSQNTHVPPTFGQGTKVEIERTVAAPSVFIFPPSDEQLKSGTASVVCLLNNFYPREAKVQWKVDNALQSGNSQESVTEQDSKDSTYSLSSTLTLSKADYEKHKVYACEVTHQGLSSPVTKSFNRGEC
1.45 | 56.7 % of control (control = 100) | 39.1 % of control (control = 100) | GpH7-A5/GpH7-B3 variant P329_16H/GpL16-k0 (antibody, human IgG1, kappa, Heterodimerized anti-glypican-3 IgG1 antibody; alteration only in the GpH7-B3 H chain; position in EU numbering; also called He Ab) heavy 1: not shown heavy 2: not shown light: DIVMTQSPLSLPVTPGEPASISCQASESLVHSNRNTYLHWYLQKPGQSPQLLIYKVSNRFSGVPDRFSGSGSGTDFTLKISRVEAEDVGVYYCSQNTHVPPTFGQGTKVEIERTVAAPSVFIFPPSDEQLKSGTASVVCLLNNFYPREAKVQWKVDNALQSGNSQESVTEQDSKDSTYSLSSTLTLSKADYEKHKVYACEVTHQGLSSPVTKSFNRGEC
1.49 | 67.9 % of control (control = 100) | 45.7 % of control (control = 100) | GpH7-A5/GpH7-B3 variant P329_15Y/GpL16-k0 (antibody, human IgG1, kappa, Heterodimerized anti-glypican-3 IgG1 antibody; alteration only in the GpH7-B3 H chain; position in EU numbering; also called He Ab) heavy 1: not shown heavy 2: not shown light: DIVMTQSPLSLPVTPGEPASISCQASESLVHSNRNTYLHWYLQKPGQSPQLLIYKVSNRFSGVPDRFSGSGSGTDFTLKISRVEAEDVGVYYCSQNTHVPPTFGQGTKVEIERTVAAPSVFIFPPSDEQLKSGTASVVCLLNNFYPREAKVQWKVDNALQSGNSQESVTEQDSKDSTYSLSSTLTLSKADYEKHKVYACEVTHQGLSSPVTKSFNRGEC
